According to patent US20220340642A1 (Kyowa Kirin, published 2022):

How the values were obtained:
[1] = target: T1, soluble recombinant of cynomolgus monkey LIGHT (His10, GS linker, Asp74-Val240); assay: BIAcore SPR
T1 chain: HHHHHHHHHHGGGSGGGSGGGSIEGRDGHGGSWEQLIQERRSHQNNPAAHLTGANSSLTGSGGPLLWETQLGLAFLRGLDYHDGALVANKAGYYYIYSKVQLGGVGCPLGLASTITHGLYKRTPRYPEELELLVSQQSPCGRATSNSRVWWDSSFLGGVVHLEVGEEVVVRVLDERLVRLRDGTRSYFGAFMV
In short: (§1)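 Dissociation constants (Kd, nM) come from surface plasmon resonance measurements on a BIAcore T-100 or T-200 instrument (GE Healthcare) in HBS-EP+ Buffer. Each test molecule was analysed for binding to soluble recombinant His-tagged human or cynomolgus monkey LIGHT, TL1A or FasL.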

[2] = target: T2, soluble recombinant of cynomolgus monkey FasL (His6, Pro133-Leu280) (UniProt P63308 133-280); assay: BIAcore SPR
T2 chain: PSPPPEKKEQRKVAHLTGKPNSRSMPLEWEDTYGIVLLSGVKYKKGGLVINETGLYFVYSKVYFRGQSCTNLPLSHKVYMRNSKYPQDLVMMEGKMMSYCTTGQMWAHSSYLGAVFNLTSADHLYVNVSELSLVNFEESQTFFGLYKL
In short: as §1

[3] = target: T3, soluble recombinant of cynomolgus monkey TL1A (His6, GS linker, Leu72-Leu251); assay: BIAcore SPR
T3 chain: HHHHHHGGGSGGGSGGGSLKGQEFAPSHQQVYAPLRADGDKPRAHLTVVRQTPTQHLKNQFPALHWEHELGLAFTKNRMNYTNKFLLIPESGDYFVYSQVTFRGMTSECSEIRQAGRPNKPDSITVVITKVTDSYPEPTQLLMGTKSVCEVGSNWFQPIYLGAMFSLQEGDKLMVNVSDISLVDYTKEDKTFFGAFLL
In short: as §1

[4] = target: T4, soluble recombinant of cynomolgus monkey TL1A (His6, GS linker, Leu72-Leu251) (cynomolgus monkey); assay: SPR, binder captured on Protein A chip
T4 construct: also called His6-cynoTL1A
T4 chain: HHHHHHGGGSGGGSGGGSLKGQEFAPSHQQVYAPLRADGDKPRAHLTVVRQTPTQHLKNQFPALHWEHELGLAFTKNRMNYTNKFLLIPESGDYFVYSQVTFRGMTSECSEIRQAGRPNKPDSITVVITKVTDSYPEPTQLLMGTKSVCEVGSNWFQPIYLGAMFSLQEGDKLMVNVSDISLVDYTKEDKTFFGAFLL
Experimental: (§2) The binding activity to human and cynomolgus monkey DcR3 ligand trimers were analyzed by the SPR method. BIAcore T-100 (GE Healthcare) was used for measurement of the binding activities to human LIGHT, cynomolgus monkey LIGHT, human TL1A and cynomolgus monkey TL1A, and BIAcore T-200 (GE Healthcare) was used for measurement of the binding activities to human FasL and cynomolgus monkey FasL. As the buffer, HBS-EP+Buffer was used.
(§3) Various DcR3 variants were injected into Series S Sensor Chip Protein A (GE Healthcare) at 10 μL/min for 30 seconds and captured. Meanwhile, the buffer containing no protein was injected into a reference flow cell. Thereafter, as an analyte, each human DcR3 ligand trimer or each cynomolgus monkey DcR3 ligand trimer diluted to 0.08 to 20 nmol/L was injected. A human LIGHT trimer, a human TL1A trimer or each cynomolgus monkey DcR3 ligand trimer was injected at the flow rate of 30 μL/min for 2 minutes to monitor the binding, and subsequently the buffer was injected for 5 minutes to monitor dissociation. A human FasL trimer was injected at 30 μL/min for 1 minute to monitor the binding, and subsequently the buffer was injected for 3 minutes to monitor dissociation. Then, 3 mol/L magnesium chloride was injected at 30 μL/min for 1 minute to perform a regeneration reaction.

[5] = target: T5, soluble recombinant of human TL1A (His6, GS linker, Leu72-Leu251) (human, UniProt O95150 72-251); assay: SPR, binder captured on Protein A chip
T5 construct: also called His6-TL1A; hTL1A
T5 sequence: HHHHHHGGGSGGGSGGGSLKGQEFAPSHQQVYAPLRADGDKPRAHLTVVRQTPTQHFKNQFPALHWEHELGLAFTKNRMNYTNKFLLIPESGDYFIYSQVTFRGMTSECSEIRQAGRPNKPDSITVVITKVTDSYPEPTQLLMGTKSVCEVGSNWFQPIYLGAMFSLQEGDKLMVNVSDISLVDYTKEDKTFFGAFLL
Experimental: as §2, §3

[6] = target: T6, FLAG-LIGHT (FLAG tag, human LIGHT Asp74-Val240) (human, UniProt O43557 74-240); assay: SPR, binder captured on Protein A chip
T6 construct: SEC trimer fraction; also called soluble recombinant FLAG-LIGHT trimer; soluble human LIGHT trimer
Experimental: as §2, §3

[7] = target: T7, FLAG-cynoLIGHT (FLAG tag, cynomolgus monkey LIGHT Asp74-Val240) (cynomolgus monkey); assay: SPR, binder captured on Protein A chip
T7 construct: SEC trimer fraction; also called soluble cynomolgus monkey LIGHT trimer
T7 chain: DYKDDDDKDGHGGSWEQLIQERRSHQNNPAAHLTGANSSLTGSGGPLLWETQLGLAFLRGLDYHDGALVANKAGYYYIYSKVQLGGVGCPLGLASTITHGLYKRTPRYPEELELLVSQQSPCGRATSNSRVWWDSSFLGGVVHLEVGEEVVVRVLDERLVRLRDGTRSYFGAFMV
Experimental: as §2, §3

[8] = target: T8, soluble recombinant of cynomolgus monkey FasL (His6, Pro133-Leu280) (cynomolgus monkey, UniProt P63308 133-280); assay: SPR, binder captured on Protein A chip
T8 construct: also called His6-cynoFasL
T8 sequence: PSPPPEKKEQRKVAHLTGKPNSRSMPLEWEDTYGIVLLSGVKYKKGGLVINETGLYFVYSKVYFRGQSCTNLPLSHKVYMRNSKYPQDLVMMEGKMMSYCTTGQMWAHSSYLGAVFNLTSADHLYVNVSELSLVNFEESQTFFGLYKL
Experimental: as §2, §3

[9] = target: T9, Human His6 Fas Ligand/TNFSF6 (Cell Signaling Technology, Inc.) (human, UniProt P48023 133-281); assay: SPR, binder captured on Protein A chip
T9 construct: Bought; confirmed as a trimer by SEC-MALS; also called recombinant human His6 Fas Ligand; soluble human FasL trimer
T9 sequence: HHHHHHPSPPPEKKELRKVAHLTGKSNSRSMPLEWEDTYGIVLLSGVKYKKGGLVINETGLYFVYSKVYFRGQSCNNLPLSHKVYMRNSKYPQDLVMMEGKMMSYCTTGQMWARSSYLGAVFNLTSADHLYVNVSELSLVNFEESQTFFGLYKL
Experimental: as §2, §3

[10] = target: T10, soluble recombinant of human LIGHT (His10, GS linker, Asp74-Val240); assay: BIAcore SPR
T10 chain: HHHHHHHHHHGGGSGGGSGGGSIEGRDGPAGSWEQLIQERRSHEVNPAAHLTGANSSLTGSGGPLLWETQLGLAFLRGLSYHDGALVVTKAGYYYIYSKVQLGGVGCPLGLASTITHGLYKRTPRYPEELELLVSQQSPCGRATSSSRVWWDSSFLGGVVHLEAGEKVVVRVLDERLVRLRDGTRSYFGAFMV
In short: as §1

Binder	Kd [1]	Kd [2]	Kd [3]	binding result [4]	binding result [5]	binding result [6]	binding result [7]	binding result [8]	binding result [9]	Kd [10]
chimera A-E57V-Fc (Eg1S YTE) (Fc fusion) ETFPPKYLHYDEETSHQLLCDKCPPGTYLKQHCTAKWKTVCAPCPPRHYTQFWNYLVRCRYCNVLCGEREEEARACHATHNRACRCRTGFFAHAGFCLEHASCPPGAGVIAPGTPSQNTQCQPCPDGFFSNETSSKAPCRKHTNCSVFGLLLTQKGNATHDNICSGNSESTQKEPKSSDKTHTCPPCPAPELLGGPSVFLFPPKPKDTLYITREPEVTCVVVDVSHEDPEVKFNWYVDGVEVHNAKTKPREEQYNSTYRVVSVLTVLHQDWLNGKEYKCKVSNKALPAPIEKTISKAKGQPREPQVYTLPPSRDELTKNQVSLTCLVKGFYPSDIAVEWESNGQPENNYKTTPPVLDSDGSFFLYSKLTVDKSRWQQGNVFSCSVMHEALHNHYTQKSLSLSPGK	340 pM	1100 pM	220 pM	binds	binds	binds	binds	binds	binds	350 pM
chimera A-E57V-Fc (Eg1S LALAGANA) (Fc fusion) ETFPPKYLHYDEETSHQLLCDKCPPGTYLKQHCTAKWKTVCAPCPPRHYTQFWNYLVRCRYCNVLCGEREEEARACHATHNRACRCRTGFFAHAGFCLEHASCPPGAGVIAPGTPSQNTQCQPCPDGFFSNETSSKAPCRKHTNCSVFGLLLTQKGNATHDNICSGNSESTQKEPKSSDKTHTCPPCPAPEAAGAPSVFLFPPKPKDTLMISRTPEVTCVVVDVSHEDPEVKFNWYVDGVEVHNAKTKPREEQYNSTYRVVSVLTVLHQDWLNGKEYKCKVSNKALPAPIEKTISKAKGQPREPQVYTLPPSRDELTKNQVSLTCLVKGFYPSDIAVEWESNGQPENNYKTTPPVLDSDGSFFLYSKLTVDKSRWQQGNVFSCSVMHEALHAHYTQKSLSLSPGK	350 pM	1100 pM	210 pM	binds	binds	binds	binds	binds	binds	330 pM
chimera A-E57K_R58E-Fc (Eg1S LALAGANA) (Fc fusion) ETFPPKYLHYDEETSHQLLCDKCPPGTYLKQHCTAKWKTVCAPCPPRHYTQFWNYLKECRYCNVLCGEREEEARACHATHNRACRCRTGFFAHAGFCLEHASCPPGAGVIAPGTPSQNTQCQPCPDGFFSNETSSKAPCRKHTNCSVFGLLLTQKGNATHDNICSGNSESTQKEPKSSDKTHTCPPCPAPEAAGAPSVFLFPPKPKDTLMISRTPEVTCVVVDVSHEDPEVKFNWYVDGVEVHNAKTKPREEQYNSTYRVVSVLTVLHQDWLNGKEYKCKVSNKALPAPIEKTISKAKGQPREPQVYTLPPSRDELTKNQVSLTCLVKGFYPSDIAVEWESNGQPENNYKTTPPVLDSDGSFFLYSKLTVDKSRWQQGNVFSCSVMHEALHAHYTQKSLSLSPGK	280 pM	990 pM	170 pM	binds	binds	binds	binds	binds	binds	290 pM
chimera A-E57K-Fc (Eg1S LALAGANA) (Fc fusion) ETFPPKYLHYDEETSHQLLCDKCPPGTYLKQHCTAKWKTVCAPCPPRHYTQFWNYLKRCRYCNVLCGEREEEARACHATHNRACRCRTGFFAHAGFCLEHASCPPGAGVIAPGTPSQNTQCQPCPDGFFSNETSSKAPCRKHTNCSVFGLLLTQKGNATHDNICSGNSESTQKEPKSSDKTHTCPPCPAPEAAGAPSVFLFPPKPKDTLMISRTPEVTCVVVDVSHEDPEVKFNWYVDGVEVHNAKTKPREEQYNSTYRVVSVLTVLHQDWLNGKEYKCKVSNKALPAPIEKTISKAKGQPREPQVYTLPPSRDELTKNQVSLTCLVKGFYPSDIAVEWESNGQPENNYKTTPPVLDSDGSFFLYSKLTVDKSRWQQGNVFSCSVMHEALHAHYTQKSLSLSPGK	280 pM	1100 pM	270 pM	binds	binds	binds	binds	binds	binds	340 pM
chimera A-E57R-Fc (Eg1S YTE) (Fc fusion) ETFPPKYLHYDEETSHQLLCDKCPPGTYLKQHCTAKWKTVCAPCPPRHYTQFWNYLRRCRYCNVLCGEREEEARACHATHNRACRCRTGFFAHAGFCLEHASCPPGAGVIAPGTPSQNTQCQPCPDGFFSNETSSKAPCRKHTNCSVFGLLLTQKGNATHDNICSGNSESTQKEPKSSDKTHTCPPCPAPELLGGPSVFLFPPKPKDTLYITREPEVTCVVVDVSHEDPEVKFNWYVDGVEVHNAKTKPREEQYNSTYRVVSVLTVLHQDWLNGKEYKCKVSNKALPAPIEKTISKAKGQPREPQVYTLPPSRDELTKNQVSLTCLVKGFYPSDIAVEWESNGQPENNYKTTPPVLDSDGSFFLYSKLTVDKSRWQQGNVFSCSVMHEALHNHYTQKSLSLSPGK	300 pM	1200 pM	360 pM	binds	binds	binds	binds	binds	binds	390 pM
